Measured values: the supplement of paper PMC10126150
± gives the standard deviation of the averaged measurements.

tested on: ATP; assay: switch fluorescence ratio, 500 uM ATP over buffer (Cy3 cluster intensity, sum of 5 cycles each) (fold (ratio)); higher = stronger signal-on switching upon ATP binding; sequences stand for … in TCGTCGGCAGCGTCAGATGTGTATAAGAGACAGTTTTTTTTTTTTTTTTTTTTTTTTT…TC; details: aptamer strand: ATP DNA aptamer (quencher-CACCTGGGGGAGTATTGCGGAGGAAGG + anchor), 100 nM annealed; ATP concentration: 500 uM
Method in brief: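 Values give the fluorescence ratio for each switch-domain sequence, averaged from per-cluster ratios of summed target-cycle to summed buffer-cycle Cy3 intensity. The Cy3-labelled switching-strand clusters sat on a modified Illumina MiSeq flow-cell, were annealed to 100 nM quencher-labelled ATP aptamer, and were imaged in selection buffer, then after 15 min with 500 uM ATP at 22 °C. Five cycles ran with NaOH stripping and re-annealing between them, and clusters outside 100-1000 RFU were excluded.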
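Further: ATP exposure 15 min at 22 °C before imaging.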

| Sequence | switch fluorescence ratio |
| --- | --- |
| TCTTTGTTGA | 0.995 ± 0.032 |
| TCTTTGTTGT | 1.01 ± 0.019 |
| TCTTTTGCAT | 1.06 ± 0.019 |
| TCTTTTGTG | 1.13 ± 0.2 |
| TCTTTTTAGT | 1 ± 0.029 |
| TGAAAAAAGG | 0.966 ± 0.03 |
| TGAAAAATGT | 0.984 ± 0.016 |
| TGAAAAGCGC | 1.01 ± 0.024 |
| TGAAAAGGGG | 0.998 ± 0.052 |
| TGAAAAGGTT | 0.983 ± 0.023 |
| TGAAACCCTA | 1.03 ± 0.016 |
| TGAAAGATCG | 1.02 ± 0.04 |
| TGAAAGGAAT | 1.13 ± 0.19 |
| TGAAAGGCTC | 1.1 ± 0.14 |
| TGAAAGGCTT | 1.06 ± 0.074 |
| TGAAAGGGAA | 0.9898 ± 0.0074 |
| TGAAAGTCTC | 1.003 ± 0.0057 |
| TGAAAGTTGT | 1.02 ± 0.029 |
| TGAAAGTTTG | 1.01 ± 0.026 |
| TGAAATAAG | 0.979 ± 0.026 |
| TGAAATATTG | 0.996 ± 0.022 |
| TGAAATCAGT | 1.01 ± 0.018 |
| TGAAATGGGG | 0.98 ± 0.049 |
| TGAAATTGTG | 1.01 ± 0.022 |
| TGAAATTTAT | 1.01 ± 0.032 |

| Sequence | switch fluorescence ratio |
| --- | --- |
| TGAACAAGGG | 0.962 ± 0.015 |
| TGAACCAGGG | 1.05 ± 0.018 |
| TGAACCTTCA | 2.71 ± 0.14 |
| TGAACGTTGG | 0.997 ± 0.029 |
| TGAAGAAGTG | 0.994 ± 0.022 |
| TGAAGCTTGG | 1.026 ± 0.0073 |
| TGAAGCTTGT | 1.004 ± 0.003 |
| TGAAGGAGGT | 1 ± 0.015 |
| TGAAGGGGAC | 0.998 ± 0.015 |
| TGAAGGGGTA | 1.01 ± 0.059 |
| TGAAGGGGTG | 0.989 ± 0.026 |
| TGAAGGGTAT | 1.02 ± 0.033 |
| TGAAGGTAAA | 1.02 ± 0.042 |
| TGAAGTAAGG | 1.03 ± 0.029 |
| TGAAGTATAG | 0.9901 ± 0.005 |
| TGAAGTCGAC | 1 ± 0.068 |
| TGAAGTCGCT | 1.02 ± 0.0048 |
| TGAAGTCTGC | 0.968 ± 0.036 |
| TGAAGTGTTT | 1.01 ± 0.028 |
| TGAAGTTAGC | 0.977 ± 0.011 |
| TGAAGTTAGG | 1.01 ± 0.021 |
| TGAAGTTCGG | 1.06 ± 0.025 |
| TGAAGTTGTA | 0.965 ± 0.035 |
| TGAATAGAGG | 1.012 ± 0.0024 |
| TGAATAGGGT | 1.03 ± 0.073 |

| Sequence | switch fluorescence ratio |
| --- | --- |
| TGAATATATT | 1.01 ± 0.022 |
| TGAATATCTT | 1.01 ± 0.026 |
| TGAATATGCG | 0.988 ± 0.0096 |
| TGAATATTTT | 0.9787 ± 0.0076 |
| TGAATCCATT | 1 ± 0.036 |
| TGAATCCGGG | 1 ± 0.038 |
| TGAATCGTTT | 0.937 ± 0.043 |
| TGAATGGGTA | 0.983 ± 0.019 |
| TGAATGTATT | 1.03 ± 0.045 |
| TGAATTCCAT | 0.983 ± 0.023 |
| TGAATTGGGA | 1.02 ± 0.07 |
| TGAATTTCGA | 0.953 ± 0.025 |
| TGACACAGTA | 1.26 ± 0.21 |
| TGACACATAC | 2.24 ± 0.033 |
| TGACAGACAT | 1.1 ± 0.027 |
| TGACAGGCGG | 0.963 ± 0.011 |
| TGACAGTCGT | 0.977 ± 0.024 |
| TGACATCATT | 1.063 ± 0.002 |
| TGACATTGTA | 1.01 ± 0.072 |
| TGACGACGAG | 0.992 ± 0.052 |
| TGACGACTGT | 1 ± 0.021 |
| TGACGCAAGG | 2.8 ± 0.093 |
| TGACGCGGGG | 1.054 ± 0.0086 |
| TGACGCGTCA | 1.01 ± 0.013 |
| TGACGGAAGG | 1 ± 0.032 |

| Sequence | switch fluorescence ratio |
| --- | --- |
| TGACGGGGGC | 1.01 ± 0.014 |
| TGACGTAGTG | 0.991 ± 0.028 |
| TGACGTCGTA | 0.9689 ± 0.0094 |
| TGACGTGTTG | 1.02 ± 0.083 |
| TGACGTTAAA | 1.04 ± 0.067 |
| TGACGTTCGG | 0.978 ± 0.029 |
| TGACGTTGAG | 0.9868 ± 0.0056 |
| TGACGTTTGC | 1.03 ± 0.12 |
| TGACTAGTTT | 1.005 ± 0.0059 |
| TGACTCGGTG | 0.984 ± 0.015 |
| TGACTTAGTT | 0.999 ± 0.051 |
| TGACTTGCGT | 0.971 ± 0.042 |
| TGAGAACGCA | 1.2 ± 0.054 |
| TGAGAAGCAA | 1.34 ± 0.056 |
| TGAGAATTTT | 0.996 ± 0.032 |
| TGAGACAAGC | 1.05 ± 0.012 |
| TGAGAGGAGG | 1 ± 0.028 |
| TGAGAGGGGC | 0.973 ± 0.058 |
| TGAGAGGTTT | 0.9817 ± 0.0014 |
| TGAGATGAAG | 1.005 ± 0.0085 |
| TGAGATTGC | 1.03 ± 0.053 |
| TGAGCAGGTT | 1.017 ± 0.0094 |
| TGAGCATGCT | 1 ± 0.021 |
| TGAGCGAAGG | 0.9807 ± 0.0057 |
| TGAGCGGAGG | 1.01 ± 0.002 |
